Measured values as given in patent publication US20180155413A1 (AstraZeneca / MedImmune, published 2018).

B1: GL20 IgG (antibody, V domains shown)
VH: QVQLQQSGPGLVKPSQTLSLTCAISGDSVSSYNAVWNWIRQSPSRGLEWLGRTYYRSGWYNDYAESVKSRITINPDTSKNQFSLQLNSVTPEDTAVYYCARSGHITVFGVNVDAFDMWGQGTMVTVSS
VL: DIQMTQSPSSLSASVGDRVTITCRTSQSLSSYTHWYQQKPGKAPKLLIYAASSRGSGVPSRFSGSGSGTDFTLTISSLQPEDFATYYCQQSRTFGQGTKVEIK
B2: GL20/39 BiS4 100/44 (bispecific antibody)
light: DIQMTQSPSSLSASVGDRVTITCRTSQSLSSYTHWYQQKPGKAPKLLIYAASSRGSGVPSRFSGSGSGTDFTLTISSLQPEDFATYYCQQSRTFGQGTKVEIKRTVAAPSVFIFPPSDEQLKSGTASVVCLLNNFYPREAKVQWKVDNALQSGNSQESVTEQDSKDSTYSLSSTLTLSKADYEKHKVYACEVTHQGLSSPVTKSFNRGEC
heavy: not shown

What was measured:
Test in all cases: cell-based or functional assay
[1] = biological target: HA of A/California/07/2009 (H1N1) (influenza A virus)
[2] = biological target: HA of A/Hong Kong/8/68 (H3N2) (influenza A virus)
[3] = biological target: HA of B/Shanghai/361/02 (yamagata) (influenza B virus)
[4] = biological target: HA of B/Hong Kong/5/72 (influenza B virus)
[5] = biological target: HA of ca B/Beijing/243/97 (victoria) (influenza B virus)
[6] = biological target: HA of ca B/Brisbane/60/2008 (victoria) (influenza B virus)
[7] = biological target: HA of ca B/Ann Arbor/1/66 (influenza B virus)
[8] = biological target: HA of B/Sichuan/379/99 (yamagata) (influenza B virus)
[9] = biological target: HA of ca B/Victoria/504/2000 (yamagata) (influenza B virus)
[10] = biological target: HA of B/Malaysia/2506/2004 (victoria) (influenza B virus)

Row | Binder | ADCC: NK cell killing of infected A549 cells (LDH release), IC50 [1] | ADCC: NK cell killing of infected A549 cells (LDH release), IC50 [2] | Hemagglutination Inhibition Titer [3] | Hemagglutination Inhibition Titer [4] | Hemagglutination Inhibition Titer [5] | Hemagglutination Inhibition Titer [6] | Hemagglutination Inhibition Titer [7] | Hemagglutination Inhibition Titer [8] | Hemagglutination Inhibition Titer [9] | Hemagglutination Inhibition Titer [10]
1 | B1 | 0.024 nM | 0.018 nM |  |  |  |  |  |  |  | 
2 | B2 |  |  | 91 nM | 244 nM | 91 nM | 244 nM | 244 nM | 122 nM | 61 nM | 244 nM
